Source: paper PMC11245488

Target: extracellular domain of human AXL (corresponding to sAXL) fused to C-terminal Fc (UniProt P30530)
Assay: SEC-MALS; human sAXL-Fc in solution; protein-conjugate analysis (protein 140 kDa, glycans ~25 kDa, total 165 kDa); conditions in the Supplemental Material

extracellular domain of human AXL (corresponding to sAXL) fused to C-terminal Fc (from UniProt P30530 26-451) (Fc fusion)
stoichiometry N: 2
